Test results taken from PMC10987364.

Experiments:
[1] = target: L-rhamnose isomerase (L-RIM) (Chloroflexus sp. origin (hot spring metagenome)); test: native gel or EMSA; 10% Native PAGE of purified L-RIM, Coomassie stained; native mass against a marker
[2] = target: L-rhamnose isomerase (L-RIM) (Chloroflexus sp. origin (hot spring metagenome)); test: SEC; Superdex 200 increase 10/300 GL, 50 mM Tris-Cl pH 7.0, 150 mM NaCl, 0.5 mL/min; calibrated with ovalbumin, conalbumin, aldolase and ferritin

L-rhamnose isomerase (L-RIM) (enzyme) gave a stoichiometry N [1] of 4 and a stoichiometry N [2] of 4.
